Measured values published in PMC3646756.

Tests used:
[1] = biological target: recombinant mouse FcRn (mouse) (UniProt Q61559)
[2] = biological target: recombinant human FcRn (human) (UniProt P55899)
[3] = biological target: hIgG1 Fc variant v6 (M252Y/V308P/N434Y) (human); assay: SPR; Biacore T200; antibody variant captured on Protein L immobilised on a CM4 chip, FcRn injected over the flow cell; pH 7.0
[4] = biological target: hIgG1 Fc variant v5 (M252Y/T307Q/Q311A/N434Y) (human); assay: as above
[5] = biological target: hIgG1 Fc variant v3 (M252Y/N434Y) (human); assay: as above
[6] = biological target: hIgG1 Fc variant v2 (M252W/N434W) (human); assay: as above
[7] = biological target: hIgG1 (anti-hsIL-6R antibody with wild-type human IgG1 constant region) (human); assay: as above
[8] = biological target: hIgG1 Fc variant v6 (M252Y/V308P/N434Y) (human); assay: SPR; KD at pH 6.0 (Table 1); set-up told only for pH 7.0: antibody variant captured on Protein L on a CM4 chip, FcRn injected
[9] = biological target: hIgG1 Fc variant v4 (M252Y/N286E/N434Y) (human); assay: as above
[10] = biological target: hIgG1 Fc variant v5 (M252Y/T307Q/Q311A/N434Y) (human); assay: as above
[11] = biological target: hIgG1 Fc variant v3 (M252Y/N434Y) (human); assay: as above
[12] = biological target: hIgG1 Fc variant v2 (M252W/N434W) (human); assay: as above
[13] = biological target: hIgG1 (anti-hsIL-6R antibody with wild-type human IgG1 constant region) (human); assay: as above
[14] = biological target: hIgG1 Fc variant v1 (I332V/N434Y) (human); assay: SPR; Biacore T200; antibody variant captured on Protein L immobilised on a CM4 chip, FcRn injected over the flow cell; pH 7.0
[15] = biological target: hIgG1 Fc variant v1 (I332V/N434Y) (human); assay: SPR; KD at pH 6.0 (Table 1); set-up told only for pH 7.0: antibody variant captured on Protein L on a CM4 chip, FcRn injected

**Q.** For “hIgG1 Fc variant v1 (I332V/N434Y) (antibody)”, which total hsIL-6R plasma concentration after PH-v1, 1 mg/kg i.v., normal mice steady-state model (reduction below the baseline) [1] is on record?
**A.** The total hsIL-6R plasma concentration after PH-v1, 1 mg/kg i.v., normal mice steady-state model (reduction below the baseline) was 150 fold.

**Q.** For “hIgG1 Fc variant v4 (M252Y/N286E/N434Y) (antibody)”, which fold decrease in total hsIL-6R plasma concentration after PH-v4 against NPH-IgG1, 1 mg/kg i.v. with 1 g/kg hIgG, hFcRn-Tgm steady-state model [2] is on record?
**A.** The fold decrease in total hsIL-6R plasma concentration after PH-v4 against NPH-IgG1, 1 mg/kg i.v. with 1 g/kg hIgG, hFcRn-Tgm steady-state model was 50 fold.

**Q.** Which results are given for “recombinant human FcRn (from UniProt P55899 24-365) (receptor)”?
**A.** Kd [3]: 35 nM; Kd [4]: 77 nM; Kd [5]: 288 nM; Kd [6]: 155 nM; Kd [7]: 88 µM; Kd [8]: 3 nM; Kd [9]: 8 nM; Kd [10]: 5 nM; Kd [11]: 15 nM; Kd [12]: 6 nM; Kd [13]: 1380 nM

**Q.** Which Kd [14] does the source give for “recombinant mouse FcRn (from UniProt Q61559 22-365) (receptor)” here?
**A.** The Kd was 52 nM.

**Q.** What about the Kd [7] of the same substance?
**A.** The Kd was 3.92 µM.

**Q.** What about the Kd [15] of the same substance?
**A.** The Kd was 3 nM.

**Q.** What about the Kd [13] of the same substance?
**A.** The Kd was 237 nM.
